B1: L315S_S320F_(295-330) tau peptide (peptide, UniProt P10636-8 295-330, looked up)
peptide: Ac-DNIKHVPGGGSVQIVYKPVDSSKVTFKCGSLGNIHH-NH2
notes: numbers count on: 2N4R tau (P10636-8); source: synthetic peptide (Genscript, > 95% purity)
B2: WT_(295-324) tau peptide (peptide, UniProt P10636-8 295-324, looked up)
peptide: DNIKHVPGGGSVQIVYKPVDLSKVTSKCGS
notes: numbers count on: 2N4R tau (P10636-8); probably synthesised, acetylated and amidated like the others
B3: WT_(295-330) tau peptide (peptide, UniProt P10636-8 295-330, looked up)
peptide: Ac-DNIKHVPGGGSVQIVYKPVDLSKVTSKCGSLGNIHH-NH2
notes: as for B1
B4: S320I tau peptide (295-330) (peptide, UniProt P10636-8 295-330, looked up)
peptide: Ac-DNIKHVPGGGSVQIVYKPVDLSKVTIKCGSLGNIHH-NH2
notes: as for B1
B5: P301S_(295-330) tau peptide (peptide, UniProt P10636-8 295-330, looked up)
peptide: Ac-DNIKHVSGGGSVQIVYKPVDLSKVTSKCGSLGNIHH-NH2
notes: as for B1
B6: S320F_(295-330) tau peptide (peptide, UniProt P10636-8 295-330, looked up)
peptide: Ac-DNIKHVPGGGSVQIVYKPVDLSKVTFKCGSLGNIHH-NH2
notes: as for B1
B7: S320F_(295-324) tau peptide (peptide, UniProt P10636-8 295-324, looked up)
peptide: DNIKHVPGGGSVQIVYKPVDLSKVTFKCGS
notes: as for B2
B8: S320I_I328V tau peptide (295-330) (peptide, UniProt P10636-8 295-330, looked up)
peptide: Ac-DNIKHVPGGGSVQIVYKPVDLSKVTIKCGSLGNVHH-NH2
notes: as for B1
B9: S320F_L325S_(295-330) tau peptide (peptide, UniProt P10636-8 295-330, looked up)
peptide: Ac-DNIKHVPGGGSVQIVYKPVDLSKVTFKCGSSGNIHH-NH2
notes: as for B1
B10: S324F_(295-330) tau peptide (peptide, UniProt P10636-8 295-330, looked up)
peptide: Ac-DNIKHVPGGGSVQIVYKPVDLSKVTSKCGFLGNIHH-NH2
notes: as for B1
B11: S320F_I328S_(295-330) tau peptide (peptide, UniProt P10636-8 295-330, looked up)
peptide: Ac-DNIKHVPGGGSVQIVYKPVDLSKVTFKCGSLGNSHH-NH2
notes: as for B1
B12: P301S_I328S_(295-330) tau peptide (peptide, UniProt P10636-8 295-330, looked up)
peptide: Ac-DNIKHVSGGGSVQIVYKPVDLSKVTSKCGSLGNSHH-NH2
notes: as for B1
B13: S320F_(306-330) tau peptide (peptide, UniProt P10636-8 306-330, looked up)
peptide: Ac-VQIVYKPVDLSKVTFKCGSLGNIHH-NH2
notes: as for B1
B14: S320F_(306-324) tau peptide (peptide, UniProt P10636-8 306-324, looked up)
peptide: Ac-VQIVYKPVDLSKVTFKCGS-NH2
notes: as for B1
B15: WT_(306-324) tau peptide (peptide, UniProt P10636-8 306-324, looked up)
peptide: Ac-VQIVYKPVDLSKVTSKCGS-NH2
notes: as for B1
B16: WT_(306-330) tau peptide (peptide, UniProt P10636-8 306-330, looked up)
peptide: Ac-VQIVYKPVDLSKVTSKCGSLGNIHH-NH2
notes: as for B1
B17: S320V tau peptide (295-330) (peptide, UniProt P10636-8 295-330, looked up)
peptide: Ac-DNIKHVPGGGSVQIVYKPVDLSKVTVKCGSLGNIHH-NH2
notes: as for B1

The series concerns the molecule itself. Put plainly: ThT fluorescence aggregation assay + negative-stain TEM; self-assembly of tau peptides at 200 µM; 1x PBS, 2 mM TCEP, pH 7, 25 µM ThT, 72 h; TEM of the endpoint.
Regarding B1, the binding result was “binds”.

Consider B2, for which the binding result was “binds”.

Regarding B3, the binding result is recorded as “binds”.

Turning to B4, the binding result is listed as “binds”.

Regarding B5, the binding result is “binds”.

In the case of B6, the binding result was “binds”.

As for B7, the binding result was “binds”.

B8: the binding result is reported as “binds”.

Consider B9, for which the binding result is “binds”.

Regarding B10, the binding result is given as “binds”.

In the case of B11, the binding result is “binds”.

On to B12, for which the binding result is reported as “binds”.

In the case of B13, the binding result was “binds”.

For B14, the binding result was “binds”.

With B15, the binding result is “binds”.

Take B16: the binding result is “binds”.

Consider B17, for which the binding result was “binds”.

The values above are taken from paper PMC10036635, “FTD-tau S320F mutation stabilizes local structure and allosterically promotes amyloid motif-dependent aggregation” (Nature Communications, 2023).
